Laboratory results taken from patent publication US20260125478A1 (VIELA BIO, published 2026).

Assays:
[1] = biological target: cynomolgus monkey FcγRIIA on blood cells (cynomolgus monkey); experiment: cell-based or functional assay
[2] = biological target: T1, recombinant human FcγRI (ELISA coat, generated at MedImmune) (human, UniProt P12314 16-292, limits assumed); experiment: ELISA on plate-coated FcγRI (2 µg/ml), detection with goat anti-human Fc-HRP
T1 construct: also called CD64
Procedure: (§1) Plates were washed five times with 200 μl of wash buffer (PBS containing 0.1% Tween 20), blocked with blocking buffer containing 5% milk in PBS for 1 hour at room temperature, and washed five additional times with wash buffer. Three-fold serial dilutions of the test antibody or control antibody (R347-Tm) were added to wells in duplicate. Plates were incubated for 2 hours at room temperature, and washed five times with wash buffer. Binding of the antibodies to the FcγRs was detected by adding 50 μl of goat anti-human Fc-HRP (Jackson ImmunoResearch Laboratories, PA) to the wells and incubating for 1 hour at room temperature, washing 10 times, and adding 50 μl TMB substrate (Pierce Biotechnology, MA). The color reaction was stopped with 50 μl 0.2M […] and the absorbance was measured using a spectrophotometer (Molecular Devices, CA) at […].

[3] = biological target: T2, recombinant human FcγRIIIA-158V allotype (ELISA coat, generated at MedImmune) (human, UniProt P08637 17-208, limits assumed); experiment: ELISA on plate-coated FcγRIIIA-158V (2 µg/ml), detection with goat anti-human Fc-HRP
T2 construct: also called FcγRIII-158V allotype; CD16A 158V
Procedure: as §1

[4] = biological target: T3, Human CD32A 131R extracellular domain, 6xHis_Flag tagged (human, UniProt P12318 34-217); experiment: Biacore; IgG1-TM captured on a Protein G chip, CD32A as analyte, 1:1 Langmuir fit, average of two experiments
T3 construct: also called Hu CD32A_131Arg; human CD32A_131 Arg
T3 chain: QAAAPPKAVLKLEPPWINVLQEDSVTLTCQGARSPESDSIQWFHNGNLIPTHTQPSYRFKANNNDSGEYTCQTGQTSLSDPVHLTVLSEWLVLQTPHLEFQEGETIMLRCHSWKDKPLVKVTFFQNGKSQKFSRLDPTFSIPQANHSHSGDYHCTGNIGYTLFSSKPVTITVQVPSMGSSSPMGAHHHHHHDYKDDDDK

[5] = biological target: T4, Human CD32A 131H extracellular domain, 6xHis_Flag tagged (human, UniProt P12318 34-217); experiment: as above
T4 construct: Used unlabelled as the analyte in Biacore; also called Hu CD32A_131His
T4 sequence: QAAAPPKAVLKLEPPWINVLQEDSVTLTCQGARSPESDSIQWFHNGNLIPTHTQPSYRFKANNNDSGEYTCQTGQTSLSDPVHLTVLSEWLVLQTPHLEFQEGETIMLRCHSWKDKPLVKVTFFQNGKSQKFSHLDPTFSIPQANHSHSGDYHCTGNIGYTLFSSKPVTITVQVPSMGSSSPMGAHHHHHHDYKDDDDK

[6] = biological target: T5, human FcγRIIA on primary human cells (neutrophils; sorted CD14+ monocytes), allotype not stated (human, UniProt P12318 34-317); experiment: flow cytometry, fluorescently labelled antibody on human neutrophils, 30 min at 4 °C, in the presence of 10 mg/mL IVIG as competitor
T5 construct: whole, on cells; also called human FcγRIIA at the neutrophil surface; FcγRIIA-expressing neutrophils
T5 sequence (looked up): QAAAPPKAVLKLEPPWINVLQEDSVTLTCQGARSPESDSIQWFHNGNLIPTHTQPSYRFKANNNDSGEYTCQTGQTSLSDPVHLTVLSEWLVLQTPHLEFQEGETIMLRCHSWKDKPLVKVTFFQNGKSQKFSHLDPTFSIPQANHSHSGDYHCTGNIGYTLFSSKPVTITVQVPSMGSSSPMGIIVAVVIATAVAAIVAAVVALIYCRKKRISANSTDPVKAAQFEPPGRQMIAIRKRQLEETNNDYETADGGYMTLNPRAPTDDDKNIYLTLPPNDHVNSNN
Procedure: Human neutrophils were re-suspended in blocking buffer [phosphate-buffered saline (PBS) supplemented with 10% fetal bovine serum] and transferred to round-bottom 96-well culture plates (0.5×10^6 cells/well). […] After incubation, cells were washed with cold PBS and the mean fluorescence intensity (MFI) of cell-bound antibodies was assessed by flow cytometry using an LSRII (BD; Franklin Lakes, NJ). The EC₅₀ for binding was calculated using a non-linear fit equation in GraphPad Prism 6 software.

T1 sequence (P12314 16-292 limits assumed): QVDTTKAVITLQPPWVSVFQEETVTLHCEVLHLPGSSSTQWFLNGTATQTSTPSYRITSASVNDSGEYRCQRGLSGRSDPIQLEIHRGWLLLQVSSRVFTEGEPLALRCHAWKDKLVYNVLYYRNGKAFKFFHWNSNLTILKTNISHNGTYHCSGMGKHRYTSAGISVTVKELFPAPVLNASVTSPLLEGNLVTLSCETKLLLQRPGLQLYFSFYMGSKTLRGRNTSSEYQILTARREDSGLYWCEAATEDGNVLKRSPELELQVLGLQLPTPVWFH
T2 sequence (P08637 17-208 F176V limits assumed): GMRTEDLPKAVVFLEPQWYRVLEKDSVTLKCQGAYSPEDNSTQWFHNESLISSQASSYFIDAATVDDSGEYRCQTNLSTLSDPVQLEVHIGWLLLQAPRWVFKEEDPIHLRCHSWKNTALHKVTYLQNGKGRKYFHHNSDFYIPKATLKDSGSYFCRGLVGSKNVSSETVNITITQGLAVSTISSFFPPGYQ

IC50 of the loss of surface FcγRIIA (M.F.I of IV.3-Alexa 647) on cynomolgus monocytes, whole blood, 2 h at 37 °C [1]: 1.09 nM
binding result [2]: no binding (tested: about 15000 ng/ml)
binding result [3]: no binding (tested: about 15000 ng/ml)
Kd [4]: 0.15 nM
koff [4]: 0.000735 s⁻¹
kon [4]: 4.98e+06 M⁻¹ s⁻¹
Kd [5]: 0.13 nM
koff [5]: 0.000337 s⁻¹
kon [5]: 2.6e+06 M⁻¹ s⁻¹
EC50 [6]: 3.35 nM
B1: 32LO0352 (MEDI9600) (antibody, human IgG1, V domains shown)
VH: QVQLVQSGAEVKKPGASVKVSCKASGYTFTNYGMNWVRQAPGQRLEWMGWLNTYTGESWYPDDFKGRVTITRDTSASTAYMELSSLRSEDTAVYYCARGDYGYDDPLDYWGQGTLVTVSS
VL: DIVMTQSPLSLPVTPGEPASISCRSSKSLLHTNQNTYLHWFLQKPGQSPQLLIYRMSVLASGVPDRFSGSGSGTDFTLKISRVEAEDVGVYYCMQHLEYPLTFGQGTKLEIK
notes: Fluorescently labelled in the neutrophil flow cytometry assay and Alexa 647 labelled for confocal microscopy; also called clone 32LO0352; CD32LO0352
